Results taken from patent publication US20210130452A1.
Values belong to the binder of their own block, whether it stands above or below them.

Legend:
[1] = biological target: human serum albumin (human) (UniProt P02768); experiment: SPR (Biacore), HSA
human IL-17A (human) [2] = biological target: human IL-17A (human) (UniProt Q16552); experiment: AlphaScreen IL17A-RA
human IL-17F (human) [3] = biological target: T1, human IL-17F (human) (UniProt Q96PD4); experiment: AlphaScreen IL17F-RC
T1 sequence: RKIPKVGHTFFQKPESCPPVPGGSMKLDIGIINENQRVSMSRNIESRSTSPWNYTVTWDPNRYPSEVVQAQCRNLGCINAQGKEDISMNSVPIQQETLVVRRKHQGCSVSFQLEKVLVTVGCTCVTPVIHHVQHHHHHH

human IL-17A (human) [4] = biological target: human IL-17A (human) (UniProt Q16552); experiment: cell-based or functional assay
[5] = biological target: human IL-17A/F heterodimer (human) (UniProt Q16552); experiment: cell-based or functional assay
human IL-17F (human) [6] = biological target: T1, human IL-17F (human); experiment: cell-based or functional assay
[7] = biological target: human IL-17A/F heterodimer (human) (UniProt Q16552); experiment: AlphaScreen IL17A/F-RA + HSA
human IL-17F (human) [8] = biological target: T1, human IL-17F (human); experiment: AlphaScreen IL17F-RA
human IL-17A (human) [9] = biological target: human IL-17A (human) (UniProt Q16552); experiment: AlphaScreen IL17A-RC
human IL-17F (human) [10] = biological target: T1, human IL-17F (human); experiment: AlphaScreen IL17F-RC + HSA
[11] = biological target: human IL-17A/F heterodimer (human) (UniProt Q16552); experiment: AlphaScreen IL17A/F-RA
human IL-17A (human) [12] = biological target: human IL-17A (human) (UniProt Q16552); experiment: AlphaScreen IL17A-RA + HSA
[13] = biological target: human IL-17A/F heterodimer (human) (UniProt Q16552); experiment: AlphaScreen IL17A/F-RC
[14] = biological target: marmoset IL-17A (marmoset); experiment: ELISA, coated IL-17A
[15] = biological target: T2, marmoset IL-17F (marmoset) (UniProt A6N6I9); experiment: ELISA, coated IL-17F
T2 sequence (looked up): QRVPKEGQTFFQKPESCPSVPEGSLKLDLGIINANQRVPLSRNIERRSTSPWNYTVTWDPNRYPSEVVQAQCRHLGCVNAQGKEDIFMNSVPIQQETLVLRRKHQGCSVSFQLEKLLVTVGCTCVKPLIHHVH

[16] = biological target: T3, Cynomolgus monkey IL-17F (Cynomolgus monkey) (UniProt G7P4V0); experiment: cell-based or functional assay
T3 sequence: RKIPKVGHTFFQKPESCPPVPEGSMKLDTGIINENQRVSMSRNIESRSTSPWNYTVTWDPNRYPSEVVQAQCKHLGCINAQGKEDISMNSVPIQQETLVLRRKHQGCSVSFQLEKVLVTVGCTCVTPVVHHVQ

[17] = biological target: Cynomolgus monkey IL-17A (Cynomolgus monkey); experiment: cell-based or functional assay
Cynomolgus monkey IL-17A (Cynomolgus monkey), sequence (chain, as listed by the source): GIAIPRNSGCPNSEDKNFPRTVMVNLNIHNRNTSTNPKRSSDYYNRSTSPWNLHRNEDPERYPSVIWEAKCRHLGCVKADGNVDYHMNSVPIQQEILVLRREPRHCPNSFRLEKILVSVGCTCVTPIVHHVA

human IL-17A (human), sequence (Q16552 other isoform, or with tags, fused parts or gaps): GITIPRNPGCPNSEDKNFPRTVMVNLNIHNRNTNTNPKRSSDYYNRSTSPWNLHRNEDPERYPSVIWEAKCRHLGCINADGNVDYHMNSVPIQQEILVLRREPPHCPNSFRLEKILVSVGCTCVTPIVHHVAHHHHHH
human IL-17A/F heterodimer (human), sequence (Q16552 24-155 limits assumed, one chain of several): as the sequence (chain, as listed by the source) above, with A3T, S8P, S34N, V77I, K78N, R104P counted along it
marmoset IL-17A (marmoset), sequence (chain, as listed by the source limits assumed): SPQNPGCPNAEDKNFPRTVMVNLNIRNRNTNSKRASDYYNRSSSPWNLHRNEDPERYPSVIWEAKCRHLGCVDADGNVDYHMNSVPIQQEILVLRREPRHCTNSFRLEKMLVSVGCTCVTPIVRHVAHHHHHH

B3: 24G10 (VHH)
VHH: EVQLVESGGGLVQAGGSLRLSCGAAGGTFSSYATGWFRQAPGKEREFVAVFRWSDSHTAYADSVKGRFTISRDGAKNTLYLQMSSLKPEDTAIYYCTTATRPGEWDYWGQGTQVTVSS
OD [14]: 0.122 OD

B4: 17C01 (VHH)
VHH: EVQLVESGGRLVQAGGSLRLPCAASGRTFTSYPMGWFRQAPGKEREFVAAISMSGDDAAYADFVRGRFTISRDDARNTVYLHMTSLKPEDTAVYYCAARTSYDGTYDYIDDYSYWGQGTQVTVSS
OD [15]: 0.0525 OD

B6: 07B11 (VHH)
VHH: EVQLVESGGGLVQAGGSLRLSCVASGRAFSSYVMGWFRQAPGMEREFVALIRWSDGITGYVDSVKGRFTISRDNAKNTVYLQMNSLKPEDTAVYYCAAAVRPGDYDYWGQGTQVTVSS
OD [14]: 0.186 OD

B8: IL17MS0110 (bispecific antibody, part only; not given: linkers and anti-albumin Nanobody, not shown: small tags and cut ends)
chain, part: EVQLVESGGGLVQAGGSQRLSCTASGTIVNIHVMGWYRQAPGKQRELVALIFSGGSADYADSVKGRFTISRDNAKNTVYLEMNSLKAEDTAVYYCAAEIGYYSGGTYYSSEAHWGQGTQVTVSSEVQLVESGGGLVQAGGSLRLSCAASGRTFSSYVVGWFRQAPGKEREFIGAISGSGDSIYYAVSEKDRFTISRDNGKNTLYLQMSSLKAEDTAVYYCTADQEFGYLRFGRSEYWGQGTQVTVSS
koff [1]: 0.0061 s⁻¹
IC50 (human IL-17A (human) [2]): 0.045 nM
IC50 (human IL-17F (human) [3]): 0.048 nM

Second part, the binder after the results:

koff [1]: 0.0057 s⁻¹
IC50 (human IL-17A (human) [2]): 0.056 nM
IC50 (human IL-17F (human) [3]): 0.047 nM
B1: IL17MS0154 (bispecific antibody, part only; not given: linkers and anti-albumin Nanobody, not shown: small tags and cut ends)
chain, part: EVQLVESGGGLVQAGGSLRLSCAASGRTFSSYVVGWFRQAPGKEREFIGAISGSGDSIYYAVSEKDRFTISRDNGKNTLYLQMSSLKAEDTAVYYCTADQEFGYLRFGRSEYWGQGTQVTVSSEVQLVESGGGLVQAGGSQRLSCTASGTIVNIHVMGWYRQAPGKQRELVALIFSGGSADYADSVKGRFTISRDNAKNTVYLEMNSLKAEDTAVYYCAAEIGYYSGGTYYSSEAHWGQGTQVTVSS

koff [1]: 0.0059 s⁻¹
Emax, hIL-17A induced IL-6, HT-1080, 100 µM HSA (human IL-17A (human) [4]): 98%
Emax, hIL-17A induced IL-6, HT-1080, without HSA (human IL-17A (human) [4]): 105%
IC50, hIL-17A induced IL-6, HT-1080, 100 µM HSA (human IL-17A (human) [4]): 1.95 nM
IC50, hIL-17A induced IL-6, HT-1080, without HSA (human IL-17A (human) [4]): 0.83 nM
Emax, hIL-17A/F induced IL-6, HT-1080, 100 µM HSA [5]: 72%
IC50, hIL-17A/F induced IL-6, HT-1080, 100 µM HSA [5]: 1.47 nM
Emax, hIL-17F induced IL-6, HT-1080, 100 µM HSA (human IL-17F (human) [6]): 85%
Emax, hIL-17F induced IL-6, HT-1080, without HSA (human IL-17F (human) [6]): 102%
IC50, hIL-17F induced IL-6, HT-1080, 100 µM HSA (human IL-17F (human) [6]): 8.5 nM
IC50, hIL-17F induced IL-6, HT-1080, without HSA (human IL-17F (human) [6]): 7.35 nM
IC50 [7]: 0.095 nM
IC50 (human IL-17F (human) [8]): 1.09 nM
IC50 (human IL-17A (human) [2]): 0.161 nM
IC50 (human IL-17A (human) [9]): 0.367 nM
IC50 (human IL-17F (human) [10]): 0.056 nM
IC50 [11]: 0.128 nM
IC50 (human IL-17A (human) [12]): 0.203 nM
IC50 [13]: 0.051 nM
IC50 (human IL-17F (human) [3]): 0.046 nM
B2: IL17MS0166 (bispecific antibody, part only; not given: linkers and anti-albumin Nanobody, not shown: small tags and cut ends)
chain, part: EVQLVESGGGLVQAGGSLRLSCGAAGGTFSSYATGWFRQAPGKEREFVAVFRWSDSHTAYADSVKGRFTISRDGAKNTLYLQMSSLKPEDTAIYYCTTATRPGEWDYWGQGTQVTVSSEVQLVESGGGLVQAGGSQRLSCTASGTIVNIHVMGWYRQAPGKQRELVALIFSGGSADYADSVKGRFTISRDNAKNTVYLEMNSLKAEDTAVYYCAAEIGYYSGGTYYSSEAHWGQGTQVTVSS

Emax, Cyno IL17F, HT-1080 bioassay [16]: 87%
IC50, Cyno IL17F, HT-1080 bioassay [16]: 8.3 nM
Emax, Cyno IL17A, HT-1080 bioassay [17]: 100%
IC50, Cyno IL17A, HT-1080 bioassay [17]: 0.29 nM
B5: SH-Fc-(GS)2-13E02 (Fc fusion, not shown: a dimerising Fc or GST; small tags and cut ends)
chain: EVQLVESGGGLVQAGGSLRLSCAASGRTYDAMGWLRQAPGKEREFVAAISGSGDDTYYADSVKGRFTISKDNAGITMYLQMNSLKPEDTAVYYCATRRGLYYVWDSNDYENWGQGTQVTVSS

Emax, Cyno IL17F, HT-1080 bioassay [16]: 103%
IC50, Cyno IL17F, HT-1080 bioassay [16]: 5 nM
Emax, Cyno IL17A, HT-1080 bioassay [17]: 98%
IC50, Cyno IL17A, HT-1080 bioassay [17]: 0.37 nM
B7: SH-Fc-(GS)2-13B03 (Fc fusion, not shown: a dimerising Fc or GST; small tags and cut ends)
chain: EVQLVESGGGSVQAGDSLRLSCAASGRANSINWFGWFRQTPGKEREFVAGIRWSDAYTEYANSVKGRFTISRDNAKNTVDLQMDSLKPEDTAVYYCVLDLSTVRYWGQGTQVTVSS
